From patent EP2718311B1 (TLA Targeted Immunotherapies AB, dated 2018)

Assays:
hCCR3 (human) [1] = target: hCCR3 (human) (UniProt P51677); assay: blood of a healthy donor passed through a column of biotinylated RANTES coupled matrix; flow cytometry for CCR1, 3 and 5-expressing cells
hCCR5 (human) [2] = target: hCCR5 (human) (UniProt P51681); assay: as above
[3] = target: T1, CCR1 on human peripheral blood cells (human) (UniProt P32246); assay: as above
T1 sequence (looked up): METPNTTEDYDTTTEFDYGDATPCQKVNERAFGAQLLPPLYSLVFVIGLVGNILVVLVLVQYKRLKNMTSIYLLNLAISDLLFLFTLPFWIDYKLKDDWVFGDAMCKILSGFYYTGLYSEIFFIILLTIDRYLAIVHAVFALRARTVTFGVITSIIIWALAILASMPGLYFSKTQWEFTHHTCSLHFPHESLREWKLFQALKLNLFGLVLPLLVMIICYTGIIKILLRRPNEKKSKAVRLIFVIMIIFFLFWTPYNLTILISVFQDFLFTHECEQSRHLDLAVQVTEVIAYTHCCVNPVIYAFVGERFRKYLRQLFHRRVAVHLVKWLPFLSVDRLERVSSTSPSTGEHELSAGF

hCCR5 (human) [4] = target: hCCR5 (human) (UniProt P51681); assay: cell-based or functional assay
hCCR9 (human) = hCCR9 (human) (UniProt P51686); assay: cell-based or functional assay
[5] = target: CCR2 on human peripheral blood cells (monocytes, T cells) (human) (UniProt P41597); assay: blood of three healthy donors passed through a column of bMCP-1 coupled matrix; flow cytometry before and after
[6] = target: CCR2 on human peripheral blood cells (monocytes, T cells) (human) (UniProt P41597); assay: flow cytometry, labelled MCP-1 on fixed blood leukocytes of healthy donors, 30 min at 4 °C
hCXCR3 (human) = hCXCR3 (human) (UniProt P49682); assay: cell-based or functional assay
hCCR6 (human) = hCCR6 (human) (UniProt P51684); assay: cell-based or functional assay
hCCR3 (human) [7] = target: hCCR3 (human) (UniProt P51677); assay: cell-based or functional assay
hCCR2b = target: T2, hCCR2b (human, UniProt P41597 1-374); assay: cell-based or functional assay
T2 chain: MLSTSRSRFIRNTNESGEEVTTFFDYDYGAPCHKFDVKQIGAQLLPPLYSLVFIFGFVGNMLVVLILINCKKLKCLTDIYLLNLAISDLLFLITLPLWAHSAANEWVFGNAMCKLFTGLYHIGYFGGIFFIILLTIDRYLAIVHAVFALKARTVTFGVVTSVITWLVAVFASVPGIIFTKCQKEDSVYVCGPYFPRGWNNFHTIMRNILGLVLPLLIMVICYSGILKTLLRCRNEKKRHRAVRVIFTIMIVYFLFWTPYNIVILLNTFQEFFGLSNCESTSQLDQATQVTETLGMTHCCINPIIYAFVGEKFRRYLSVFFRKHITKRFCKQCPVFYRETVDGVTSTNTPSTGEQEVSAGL

Chain of hCCR3 (human) (P51677 whole entry): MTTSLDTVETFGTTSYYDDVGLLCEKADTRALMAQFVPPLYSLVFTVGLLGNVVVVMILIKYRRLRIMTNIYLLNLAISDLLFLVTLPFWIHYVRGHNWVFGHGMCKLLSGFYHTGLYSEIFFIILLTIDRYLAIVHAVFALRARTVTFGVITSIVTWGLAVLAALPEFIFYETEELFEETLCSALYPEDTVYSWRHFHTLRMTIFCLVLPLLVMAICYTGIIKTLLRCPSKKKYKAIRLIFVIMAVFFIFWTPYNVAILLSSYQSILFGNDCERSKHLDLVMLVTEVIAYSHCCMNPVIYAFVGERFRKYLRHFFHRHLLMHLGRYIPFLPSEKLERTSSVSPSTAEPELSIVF
Chain of hCCR5 (human) (P51681 whole entry): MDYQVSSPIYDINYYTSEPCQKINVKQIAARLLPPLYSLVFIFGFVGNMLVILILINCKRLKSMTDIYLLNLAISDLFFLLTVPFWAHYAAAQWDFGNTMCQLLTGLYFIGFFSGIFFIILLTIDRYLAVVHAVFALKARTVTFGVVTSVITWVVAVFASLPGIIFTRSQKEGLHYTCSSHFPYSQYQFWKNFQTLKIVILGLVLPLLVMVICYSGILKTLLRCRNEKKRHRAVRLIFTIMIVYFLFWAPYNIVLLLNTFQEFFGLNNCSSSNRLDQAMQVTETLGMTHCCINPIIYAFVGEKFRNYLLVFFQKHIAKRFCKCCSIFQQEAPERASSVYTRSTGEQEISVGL
Chain of hCXCR3 (human) (P49682 whole entry): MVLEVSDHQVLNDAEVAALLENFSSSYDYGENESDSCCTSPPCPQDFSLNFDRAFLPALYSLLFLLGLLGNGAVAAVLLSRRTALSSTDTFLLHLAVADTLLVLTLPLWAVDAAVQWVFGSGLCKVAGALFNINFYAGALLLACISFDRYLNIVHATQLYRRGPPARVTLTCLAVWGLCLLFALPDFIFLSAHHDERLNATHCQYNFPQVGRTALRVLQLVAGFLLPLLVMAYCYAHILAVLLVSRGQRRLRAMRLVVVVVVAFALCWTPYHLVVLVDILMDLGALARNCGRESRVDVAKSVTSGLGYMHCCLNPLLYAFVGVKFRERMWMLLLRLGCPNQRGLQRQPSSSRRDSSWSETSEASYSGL
Chain of hCCR9 (human) (P51686 whole entry): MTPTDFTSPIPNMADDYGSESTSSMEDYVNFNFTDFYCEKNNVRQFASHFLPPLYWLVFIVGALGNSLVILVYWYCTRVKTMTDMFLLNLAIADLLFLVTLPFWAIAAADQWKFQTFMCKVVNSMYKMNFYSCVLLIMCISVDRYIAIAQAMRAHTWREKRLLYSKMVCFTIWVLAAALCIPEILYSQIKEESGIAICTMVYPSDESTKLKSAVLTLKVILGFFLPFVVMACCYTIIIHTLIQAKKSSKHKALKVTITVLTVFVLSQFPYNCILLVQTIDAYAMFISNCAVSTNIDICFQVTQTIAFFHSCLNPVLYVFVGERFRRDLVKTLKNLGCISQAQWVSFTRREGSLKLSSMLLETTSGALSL
Chain of hCCR6 (human) (P51684 whole entry): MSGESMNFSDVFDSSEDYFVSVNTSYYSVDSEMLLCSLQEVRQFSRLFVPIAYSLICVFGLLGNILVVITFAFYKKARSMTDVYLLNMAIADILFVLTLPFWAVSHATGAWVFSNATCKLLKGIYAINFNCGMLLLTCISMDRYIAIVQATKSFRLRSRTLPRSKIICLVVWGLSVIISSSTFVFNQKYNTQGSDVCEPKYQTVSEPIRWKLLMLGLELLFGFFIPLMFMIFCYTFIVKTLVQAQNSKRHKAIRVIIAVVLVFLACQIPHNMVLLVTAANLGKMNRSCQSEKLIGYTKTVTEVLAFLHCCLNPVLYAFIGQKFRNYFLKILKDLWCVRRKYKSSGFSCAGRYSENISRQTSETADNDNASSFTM

**Q.** “biotinRANTES (CCL5) (from UniProt P13501 24-91) (ligand)” was tested. Which reduction of chemokine receptor-expressing cells by the column (hCCR3 (human) [1]) did it give?
**A.** The reduction of chemokine receptor-expressing cells by the column was 20%.

**Q.** And the reduction of chemokine receptor-expressing cells by the column (hCCR5 (human) [2])?
**A.** The reduction of chemokine receptor-expressing cells by the column was 20%.

**Q.** What about the reduction of chemokine receptor-expressing cells by the column [3] of the same molecule?
**A.** Its reduction of chemokine receptor-expressing cells by the column is 20%.

**Q.** And the agonist activity in an Aequorin assay, EC50 (hCCR5 (human) [4])?
**A.** Its agonist activity in an Aequorin assay, EC50 is 0.5 nM.

**Q.** Which agonist activity in an Aequorin assay, EC50 (hCCR9 (human)) does the source give for “biotinTECK(Met to Nleu substitution) (from UniProt O15444 25-97) (ligand)” here?
**A.** Its agonist activity in an Aequorin assay, EC50 is 63.6 nM.

**Q.** “biotinylated MCP-1 (from UniProt P13500 24-99) (ligand)” was tested. Which remaining levels of monocytes after column passage [5] did it give?
**A.** Its remaining levels of monocytes after column passage is 20 to 30%.

**Q.** What about the percent of monocytes that bound the chemokine [6] of the same molecule?
**A.** Its percent of monocytes that bound the chemokine is 90%.

**Q.** For “recombinant native IP-10 (from UniProt P02778 22-98) (ligand)”, which agonist activity in an Aequorin assay, EC50 (hCXCR3 (human)) is on record?
**A.** The agonist activity in an Aequorin assay, EC50 was 4.4 nM.

**Q.** How did the agonist activity in an Aequorin assay, EC50 (hCXCR3 (human)) turn out when “recombinant native ITAC (from UniProt O14625 22-94) (ligand)” was run?
**A.** The agonist activity in an Aequorin assay, EC50 was 0.7 nM.

**Q.** “recombinant native MIP-3α (from UniProt P78556 27-96) (ligand)” was tested. Which agonist activity in an Aequorin assay, EC50 (hCCR6 (human)) did it give?
**A.** Its agonist activity in an Aequorin assay, EC50 is 1 nM.

**Q.** Which agonist activity in an Aequorin assay, EC50 (hCCR9 (human)) does the source give for “recombinant native TECK (from UniProt O15444 24-150) (ligand)” here?
**A.** The agonist activity in an Aequorin assay, EC50 was 67.9 nM.

**Q.** For “recombinant native eotaxin (from UniProt P51671 24-97) (ligand)”, which activity in an Aequorin assay (agonist), EC50 (hCCR3 (human) [7]) is on record?
**A.** The activity in an Aequorin assay (agonist), EC50 was 10.7 nM.

B1: recombinant native MCP-2 (ligand, human, UniProt P80075 24-99, looked up)
chain: QPDSVSIPITCCFNVINRKIPIQRLESYTRITNIQCPKEAVIFKTKRGKEVCADPKERWVRDSMKHLDQIFQNLKP
**Q.** How did the “activity in an Aequorin assay (partial agonist), EC50” value (hCCR2b) turn out when B1 was run?
**A.** Its value is 23.5 nM.
